{"source": "patent US20250011453A1", "about": "“METHODS FOR TREATING CANCER USING A COMBINATION OF A PD-1 ANTAGONIST, AN ILT4 ANTAGONIST, AND CHEMOTHERAPEUTIC AGENTS” (Merck Sharp & Dohme LLC, priority 2021, published 2025)", "assay": "Phase 1 open label, multi-arm, multi-center study of MK-4830 as monotherapy or in combination with pembrolizumab (NCT03564691): safety and tolerability", "type": "in vivo, human", "data": [{"substance": "MK-4830: anti-ILT4 antibody; light chain SEQ ID NO:5, heavy chain SEQ ID NO:10 (Table 4)", "values": [{"measurement": "Grade 3 drug-related AE", "setting": "1600 mg dose level, MK-4830 monotherapy cohort", "result": "one episode of transient Grade 3 blood pressure increase"}, {"measurement": "participants with one or more drug-related AEs", "setting": "51 treated participants (monotherapy and pembrolizumab combination pooled), preliminary data, majority Grade 1", "result": 51, "unit": "%"}, {"measurement": "Grade 4 or 5 drug-related AEs or SAEs", "setting": "all participants (51 treated), preliminary data", "result": "no Grade 4 or 5 drug-related AEs or SAEs"}, {"measurement": "target dose limiting toxicity (DLT) rate", "setting": "participants with advanced solid tumors, MK-4830 monotherapy up to 1600 mg and MK-4830 up to 800 mg plus pembrolizumab, May 10, 2019 data cutoff", "result": "not reached in any of the cohorts"}]}]}
